Results published in publication PMC5931981, “Identification of a pyrophosphate-dependent kinase and its donor selectivity determinants” (Nature Communications, 2018).

Tests used:
TM0415 = target: T1, TM0415 (Thermotoga maritima, UniProt Q9WYP6); test: X-ray crystal structure; type: binding; settings: untagged
T1 construct: gene TM_0415; synthetic gene in pET-15b, E. coli BL21(DE3)pLysS; N-terminal His-tag for activity and kinetics; untagged for crystallization; monomer
T1 sequence (Q9WYP6 1-286): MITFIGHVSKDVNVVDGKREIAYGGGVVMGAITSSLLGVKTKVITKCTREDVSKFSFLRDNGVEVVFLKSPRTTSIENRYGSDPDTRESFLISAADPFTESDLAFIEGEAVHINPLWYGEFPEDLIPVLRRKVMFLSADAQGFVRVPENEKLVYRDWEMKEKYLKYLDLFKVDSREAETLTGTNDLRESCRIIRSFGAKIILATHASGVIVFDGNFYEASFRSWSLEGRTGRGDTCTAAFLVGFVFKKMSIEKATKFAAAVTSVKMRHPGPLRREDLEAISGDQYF

malachite green Pi assay [1] = substrate: O=P(O)(O)OP(=O)(O)O; test: malachite green Pi assay; type: biochemical, Thermotoga maritima; settings: myo-inositol as acceptor, 500 µM MgCl2, 50 mM MES-NaOH pH 6.1, 70 °C, His-tagged, upper limit, velocity constant at 15-500 µM
malachite green Pi assay [2] = substrate: O[C@H]1[C@H](O)[C@@H](O)[C@H](O)[C@@H](O)[C@H]1O; test: malachite green Pi assay; type: biochemical, Thermotoga maritima; settings: PPi as phosphate donor, 500 µM MgCl2, 50 mM MES-NaOH pH 6.1, 70 °C, His-tagged

## O[C@H]1[C@H](O)[C@@H](O)[C@H](O)[C@@H](O)[C@H]1O [myo-inositol]
TM0415; phosphate-acceptor site, with PCP and Mg2+, also in sulfate complex 5YSQ
  X-ray crystal structure: D11, N78, Q141, and R145 in TM0415 interact with four of the six hydroxyl groups

## O=P(O)(O)CP(=O)(O)O [PCP]
TM0415; phosphate-donor site, chain A, with Mg2+ and myo-inositol
  X-ray crystal structure: Chain A was complexed with PCP, a magnesium ion, and myo-inositol

B1: TM0415 (Thermotoga maritima MSB8) (protein)
chain: T1 sequence (Q9WYP6 1-286)
notes: synthetic gene in pET-15b, E. coli BL21(DE3)pLysS; N-terminal His-tag for activity and kinetics; untagged for crystallization; monomer
Malachite green Pi assay [1]
  kcat: ~9.5 s⁻¹
Malachite green Pi assay [2]
  Km: 12 ± 2 mM
  kcat: 10.8 ± 0.3 s⁻¹
